Data as given in the Immune Epitope Database (IEDB).

Tests used:
HLA-A*30:01 = test: IEDB peptide-MHC binding, purified MHC/competitive/radioactivity; filed as Kd, often an IC50 or EC50 that approximates it; ≥ and ≤ were set here for values at or beyond the usual limits of such assays
HLA-A*03:01 [1] = test: as above; conditions: source organism: Vaccinia virus WR
HLA-A*33:01 = test: as above
HLA-A*31:01 [2] = test: as above; conditions: source organism: Vaccinia virus WR
HLA-A*68:01 = test: as above
HLA-A*11:01 [3] = test: as above; conditions: source organism: Vaccinia virus WR
HLA-A*24:02 = test: IEDB peptide-MHC binding, purified MHC/competitive/fluorescence; ≥ and ≤ were set here for values at or beyond the usual limits of such assays
HLA-A*02:01 [4] = test: as above
HLA-A*02:01 [5] = test: IEDB peptide-MHC binding, purified MHC/competitive/radioactivity; filed as Kd, often an IC50 or EC50 that approximates it; ≥ and ≤ were set here for values at or beyond the usual limits of such assays; conditions: source organism: Lassa virus Josiah
HLA-B*15:01 = test: as above
HLA-A*02:01 [6] = test: IEDB peptide-MHC binding, purified MHC/competitive/fluorescence; filed as Kd, often an IC50 or EC50 that approximates it; ≥ and ≤ were set here for values at or beyond the usual limits of such assays
HLA-A*30:02 = test: IEDB peptide-MHC binding, purified MHC/competitive/radioactivity; filed as Kd, often an IC50 or EC50 that approximates it; ≥ and ≤ were set here for values at or beyond the usual limits of such assays
HLA-A*29:02 = test: as above
HLA-A*26:01 = test: as above
HLA-A*01:01 = test: as above
HLA-A*32:01 = test: as above
HLA-B*44:02 = test: as above
HLA-B*40:01 = test: as above
HLA-B*44:03 = test: as above
HLA-A*31:01 [7] = test: IEDB peptide-MHC binding, purified MHC/direct/fluorescence; filed as Kd, often an IC50 or EC50 that approximates it; ≥ and ≤ were set here for values at or beyond the usual limits of such assays
HLA-B*08:01 = test: IEDB peptide-MHC binding, purified MHC/competitive/radioactivity; filed as Kd, often an IC50 or EC50 that approximates it; ≥ and ≤ were set here for values at or beyond the usual limits of such assays
HLA-A*02:06 = test: as above; conditions: source organism: Dengue virus 1 Brazil/97-11/1997
HLA-A*11:01 [8] = test: IEDB peptide-MHC binding, purified MHC/direct/fluorescence; filed as Kd, often an IC50 or EC50 that approximates it; ≥ and ≤ were set here for values at or beyond the usual limits of such assays; conditions: source organism: Homo sapiens
HLA-B*27:05 = test: as above; conditions: source organism: Homo sapiens
HLA-A*03:01 [9] = test: as above; conditions: source organism: Rickettsia prowazekii
[10] = source organism: Vaccinia virus WR
[11] = source organism: Zaire ebolavirus
[12] = source organism: Dengue virus 1 Brazil/97-11/1997
[13] = source organism: Mammarenavirus brazilense
[14] = source organism: Dengue virus 3 Martinique/1243/1999
[15] = source organism: Dengue virus 4 Philippines/H241/1956
[16] = source organism: SARS coronavirus Tor2
[17] = source organism: Dengue virus 2 Jamaica/1409/1983
[18] = source organism: Mammarenavirus guanaritoense
[19] = source organism: Dengue virus 4 Dominica/814669/1981

MVLPGAANK
Kd (HLA-A*30:01; [10]): 58.9 nM

RIRQQLPLY
Kd (HLA-A*03:01 [1]): 21.5 nM | Kd (HLA-A*33:01; [10]): ≥ 77700 nM | Kd (HLA-A*31:01 [2]): 773 nM | Kd (HLA-A*68:01; [10]): 1190 nM | Kd (HLA-A*30:01; [10]): 12.8 nM | Kd (HLA-A*11:01 [3]): 553 nM

IYRGTTFAE
IC50 (HLA-A*24:02; [11]): 9880 nM

TGILQLPRD
IC50 (HLA-A*02:01 [4]; [11]): ≥ 584000 nM | IC50 (HLA-A*24:02; [11]): ≥ 506000 nM

PLGLVDLFV
Kd (HLA-A*02:01 [5]): 4170 nM

AQNALDNLVM
Kd (HLA-B*15:01; [12]): 2.02 nM

HTKIDSMFL
IC50 (HLA-A*02:01 [4]; source organism: Variola virus): 53700 nM | Kd (HLA-A*30:01; [10]): 1.46 nM

LVYKKMQSY
Kd (HLA-B*15:01; [10]): 45.7 nM

YLKKKNHPL
Kd (HLA-A*02:01 [6]; source organism: Bacillus cereus G9241): 6 nM

SLKDVLVSV
Kd (HLA-A*02:01 [6]; source organism: Horsepox virus): 3.6 nM

KTLHSSVQSY
Kd (HLA-A*30:02; [13]): 73.5 nM | Kd (HLA-A*29:02; [13]): 6180 nM | Kd (HLA-A*26:01; [13]): ≥ 36800 nM | Kd (HLA-A*01:01; [13]): 4920 nM | Kd (HLA-A*32:01; [13]): 527 nM | Kd (HLA-A*30:01; [13]): 573 nM

KAYHIIFFV
Kd (HLA-A*30:01; [10]): 405 nM

AEIPLQWIAS
Kd (HLA-B*44:02; [14]): 200 nM | Kd (HLA-B*40:01; [14]): 2240 nM

SEFNTYKRSG
Kd (HLA-B*44:02; [12]): 2170 nM | Kd (HLA-B*40:01; [12]): 8760 nM | Kd (HLA-B*44:03; [12]): 7050 nM

LDRPHTPQF
IC50 (HLA-A*24:02; source organism: Sudan ebolavirus): 23800 nM

CTREEFISK
Kd (HLA-A*30:01; [15]): 21.1 nM

ALRANSAVK
Kd (HLA-A*31:01 [7]; source organism: SARS-CoV1): 479 nM | Kd (HLA-A*33:01; [16]): ≥ 77700 nM | Kd (HLA-A*68:01; [16]): ≥ 26400 nM

ALHQVFGAIY
Kd (HLA-A*30:02; [17]): 71.8 nM | Kd (HLA-B*15:01; [17]): 4.38 nM

ELLSYCVSLF
Kd (HLA-A*30:02; [18]): 9750 nM | Kd (HLA-A*29:02; [18]): 5800 nM | Kd (HLA-A*26:01; [18]): 99.3 nM | Kd (HLA-A*01:01; [18]): 261 nM | Kd (HLA-A*32:01; [18]): 2640 nM | Kd (HLA-A*30:01; [18]): 1060 nM

LMNKENAEM
Kd (HLA-B*15:01; [10]): 7.7 nM

YIKFIFLQM
Kd (HLA-B*08:01; [10]): 8.58 nM | Kd (HLA-B*15:01; [10]): 1350 nM

LRVLSIPPTA
Kd (HLA-A*30:01; [15]): 3500 nM

IHQGMHMVA
IC50 (HLA-A*02:01 [4]; [11]): ≥ 84700 nM | IC50 (HLA-A*24:02; [11]): ≥ 185000 nM

EEEEQTLTI
Kd (HLA-B*40:01; [17]): 103 nM

ETWILRHPGF
Kd (HLA-A*26:01; [17]): 1380 nM | Kd (HLA-A*30:01; [17]): 12300 nM

RLRGEARKTF
Kd (HLA-B*15:01; [17]): 49.3 nM

ASNIVLDQI
IC50 (HLA-A*02:01 [4]; [10]): ≥ 86200 nM | IC50 (HLA-A*24:02; [10]): 5240 nM

AENTNSVTNI
Kd (HLA-B*44:02; [19]): 130 nM | Kd (HLA-B*40:01; [19]): 461 nM | Kd (HLA-B*44:03; [19]): 372 nM

AQMWQLMYF
Kd (HLA-A*02:06): 9.54 nM | Kd (HLA-B*15:01; [12]): 1.58 nM

YLKEEQDQQY
Kd (HLA-A*01:01; [15]): 15600 nM | Kd (HLA-B*15:01; [15]): 7.59 nM

RVRISLIYL
Kd (HLA-A*30:01; [10]): 0.0915 nM

KLVVVAVGV
Kd (HLA-A*02:01 [6]; source organism: Schaalia radingae): 10 nM

SNSNRLMSI
Kd (HLA-B*08:01; [10]): 10.1 nM

GRNSFEVRV
Kd (HLA-A*11:01 [8]): ≥ 37700 nM | Kd (HLA-B*27:05): 1060 nM

MEEALRGLPI
Kd (HLA-B*44:02; [17]): 29.3 nM | Kd (HLA-B*40:01; [17]): 54.2 nM | Kd (HLA-B*44:03; [17]): 1110 nM

RPTIEKDVDL
Kd (HLA-B*08:01; [14]): 846 nM

VVKATYLLK
Kd (HLA-A*30:01; [10]): 0.32 nM

KWLKIITPK
Kd (HLA-A*03:01 [9]): ≥ 20000 nM | Kd (HLA-A*31:01 [7]; source organism: Rickettsia prowazekii): 217 nM
